The source of these data is US20060172374.

The target of one data set is bovine S100B (Sigma) (UniProt P02638).

“And” between values parts separate entries of the source, which are not always exact repeats. Equal values may be shown once.

bovine S100B (Sigma), sequence (P02638 2-92): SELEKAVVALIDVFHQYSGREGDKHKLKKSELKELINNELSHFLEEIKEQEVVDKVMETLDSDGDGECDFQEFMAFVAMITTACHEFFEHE
GST-NDR2, sequence (chain, as listed by the source): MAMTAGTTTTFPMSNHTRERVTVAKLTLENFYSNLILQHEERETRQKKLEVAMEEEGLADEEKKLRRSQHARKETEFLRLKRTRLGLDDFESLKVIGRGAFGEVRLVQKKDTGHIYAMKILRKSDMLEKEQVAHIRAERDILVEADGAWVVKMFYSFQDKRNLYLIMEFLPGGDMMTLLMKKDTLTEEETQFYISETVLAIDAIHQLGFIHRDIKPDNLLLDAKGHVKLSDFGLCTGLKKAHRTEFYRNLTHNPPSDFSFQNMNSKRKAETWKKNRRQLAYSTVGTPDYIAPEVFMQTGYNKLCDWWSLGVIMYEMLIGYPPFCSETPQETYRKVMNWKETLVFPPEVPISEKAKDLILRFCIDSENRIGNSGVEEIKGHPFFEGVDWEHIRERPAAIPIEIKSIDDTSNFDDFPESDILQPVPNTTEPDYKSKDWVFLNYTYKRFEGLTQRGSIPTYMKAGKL
myc-tagged hMOB1, sequence (chain, as listed by the source): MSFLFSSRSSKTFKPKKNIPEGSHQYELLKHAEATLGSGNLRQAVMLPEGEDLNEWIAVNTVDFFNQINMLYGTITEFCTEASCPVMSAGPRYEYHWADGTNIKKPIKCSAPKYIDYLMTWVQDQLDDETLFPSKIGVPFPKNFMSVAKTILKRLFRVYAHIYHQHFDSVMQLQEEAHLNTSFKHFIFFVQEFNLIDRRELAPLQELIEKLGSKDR

In the data set with bovine S100B (Sigma), GST-NDR1 S281A registered an autophosphorylation, incorporated 32P (Cerenkov counting), +S100B of 0.028 and a specific activity, peptide kinase assay, after autophosphorylation +S100B of 0.952.
In the case of GST-NDR1 wild type, in the data set with bovine S100B (Sigma), the autophosphorylation, incorporated 32P (Cerenkov counting), +S100B came to 0.351; the increase in autophosphorylation entry was “an approximate 2-fold increase in autophosphorylation (on both Ser281 and Thr444)”; the “increase in kinase activity” value was “about a 5-fold increase in kinase activity”; the “phosphorylation on Ser281 and Thr444 (immunoblot with phosphospecific antibodies)” value is “Ca2+/S100B was found to enhance phosphorylation on both Ser281 and Thr444”. Further, the specific activity, peptide kinase assay, after autophosphorylation +S100B in the data set with bovine S100B (Sigma) amounted to 21.3.
With GST-NDR2, in the data set with bovine S100B (Sigma), the “rate of NDR2 autophosphorylation” value was “increases the rate of NDR2 autophosphorylation by ˜2-fold after 4 hours of incubation” and the “specific NDR activity” value is listed as “stimulates the specific NDR activity in a concentration dependent manner up to ˜4-fold”.
In the data set with bovine S100B (Sigma), GST-NDR1 T444A registered an autophosphorylation, incorporated 32P (Cerenkov counting), +S100B of 0.241 and a specific activity, peptide kinase assay, after autophosphorylation +S100B of 3.97.
For HA-tagged NDR1 wild type, the OA stimulated NDR kinase activity (peptide kinase assay of 12CA5 immunoprecipitates) in the data set with myc-tagged hMOB1 was 2 fold and 3 fold. The “NDR autophosphorylation activity (32P, SDS PAGE, phosphoimager)” value in the data set on GST-hMOB1 is recorded as “Addition of GST-hMOB1 to HA-NDR kinase reactions stimulated NDR autophosphorylation activity”.
For GST-NDR1 T74A, in the data set with bovine S100B (Sigma), the “S100B-mediated increase of phosphorylation of Ser281 and Thr444 (immunoblot with phosphospecific antibodies)” value was “the T74A point mutation abolished the S100B-mediated increase of phosphorylation for both Ser281 and Thr444 residues without affecting the intrinsic NDR1 autophosphorylation”; the autophosphorylation, incorporated 32P (Cerenkov counting), +S100B worked out at 0.207; the specific activity, peptide kinase assay, after autophosphorylation +S100B was determined as 7.82.
Take GST-NDR1 kinase dead (K118A): in the data set with bovine S100B (Sigma), the autophosphorylation, incorporated 32P (Cerenkov counting), +S100B came to 0.0064 and the specific activity, peptide kinase assay, after autophosphorylation +S100B came out at 0.222.
